# Data published in the PETadex activity labels.
# B1: unnamed (protein)
# chain: QLGAIENGLESGSANACPDAILIFARGSTEPGNMGITVGPALANGLESHIRNIWIQGVGGPYDAALATNFLPRGTSQANIDEGKRLFALANQKCPNTPVVAGGYSQGAALIAAAVSELSGAVKEQVKGVALFGYTQNLQNRGGIPNYPRERTKVFCNVGDAVCTGTLIITPAHLSYTIEARGEAARFLRDRIRA
# B2: unnamed (protein)
# chain: MNPFEKGPDPTKTMLEASTGPFTYTTTTVSSTTASGYRQGTIYHPTNVTGPFAAVAVVPGYLASQSSINWWGPRLASHGFVVITIDTNSTSDQPPSRATQLMAALNQLKTFSNTSSHPIYRKVDPNRLGVMGWSMGGGGTLIAARDNPTLKAAIPFAPWNSSTNFSTVSVPTLIIACESDSTAPVNSHASPFYNSLPSTTKKAYLEMNNGSHSCANSGNSNAGLIGKYGVSWMKRFMDNDTRFSPYLCGAPHQADLSLTAIDEYRENCPY
# B3: unnamed (protein)
# chain: ANPYERGPNPTDALLEARSGPFSVSEENVSRLSASGFGGGTIYYPRENNTYGAVAISPGYTGTEASIAWLGERIASHGFVVITIDTITTLDQPDSRAEQLNAALNHMINRASSTVRSRIDSSRLAVMGHSMGGGGSLRLASQRPDLKAAIPLTPWHLNKNWSSVTVPTLIIGADLDTIAPVATHAKPFYNSLPSSISKAYLELDGATHVAPNIPNKIIGKYSVAWLKRFVDNDTRYTQFLCPGPRDGLFGEVEEYRSTCPFYPNSSSVDKLAAALE
# B4: unnamed (protein)
# chain: ANPYERGPNPTDALLEARSGPFSVSEENVSRLSASGFGGGTIYYPRENNTYGAVAISPGYTGTEASIAWLGERIASHGFVVITIDTITTLDQPDSRAEQLNAALNHMINRASSTVRSRIDSSRLAVMGHSMGGGGSLRLASQRPDLKAAIPLTPWHLNKNWSSVTVPTLIIGADLDTIAPVATHAKPFYNSLPSSISKAYLELDGATHWAPNIPNKIIGKYSVAWLKRFVDNDTRYTQFLCPGPRDGLFGEVEEYRSTCPFYPNSSSVDKLAAALE
# B5: unnamed (protein)
# chain: ANPYERGPNPTDALLEARSGPFSVSEENVSRLSASGFGGGTIYYPRENNTYGAVAISPGYTGTEASIAWLGERIASHGFVVITIDTITTLDQPDSRAEQLNAALNHMINRASSTVRSRIDSSRLAVMGHSMGGGGSLRLASQRPDLKAAIPLTPWHLNKNWSSVTVPTLIIGADLDTIAPVATHAKPFYNSLPSSISKAYLELDGATHLAPNIPNKIIGKYSVAWLKRFVDNDTRYTQFLCPGPRDGLFGEVEEYRSTCPFYPNSSSVDKLAAALE
# Key:
# PET [1] = experiment: Proxy for plastic degradation [Released monomer concentration (HPLC/LC-MS) (TPA+EG)]; details: pH 8, 70 °C, part of the chain shown
# PET [2] = experiment: Proxy for plastic degradation [Released monomer concentration (HPLC/LC-MS) (TPA+MHET)]; details: pH 9
# PET [3] = experiment: Proxy for plastic degradation [Released monomer concentration (HPLC/LC-MS) (Total aromatic products)] (nmol/(min*cm²)); details: pH 9
protein,measurement,setting,value
B1,Proxy for plastic degradation,PET [1]; 0 h,0%
same,Proxy for plastic degradation,PET [1]; 24 h,38%
same,Proxy for plastic degradation,PET [1]; 48 h,50%
same,Proxy for plastic degradation,PET [1]; 72 h,70%
same,Proxy for plastic degradation,PET [1]; 96 h,90%
B2,Proxy for plastic degradation,PET [2]; 30 °C,795 µM
same,Proxy for plastic degradation,PET [2]; 40 °C,790 µM
B3,Proxy for plastic degradation,PET [3],6.5
B4,Proxy for plastic degradation,PET [3],3
B5,Proxy for plastic degradation,PET [3],0.5
